Assay [1] addresses HLA-B*15:17. Kind of assay: IEDB peptide-MHC binding, purified MHC/competitive/fluorescence; filed as Kd, often an IC50 or EC50 that approximates it; ≥ and ≤ were set here for values at or beyond the usual limits of such assays. Conditions: source organism: Yersinia mollaretii ATCC 43969.
Assay [2] concerns the target HLA-A*69:01. The description is as above.
The target in assay [3] is HLA-A*02:12. The description is as above.
Assay [4] has as its target HLA-B*39:01. Described as above. The settings on record: source organism: Yersinia mollaretii ATCC 43969.
Assay [5] addresses HLA-A*03:01. Described as above. Conditions: source organism: Yersinia mollaretii ATCC 43969.
The target in assay [6] is HLA-A*29:02. Described as above. Conditions: source organism: Yersinia mollaretii ATCC 43969.
Assay [7] deals with HLA-A*68:02. Described as above. The settings on record: source organism: Yersinia mollaretii ATCC 43969.
Assay [8] concerns the target HLA-B*51:01. The description is as above. Conditions: source organism: Yersinia mollaretii ATCC 43969.
Assay [9] deals with HLA-A*24:03. The description is as above. The settings on record: source organism: Yersinia mollaretii ATCC 43969.
For assay [10], the target named is HLA-B*46:01. The description is as above. Conditions: source organism: Yersinia mollaretii ATCC 43969.
Assay [11] addresses HLA-B*57:01. The assay is described as above. Conditions: source organism: Yersinia mollaretii ATCC 43969.
Assay [12] concerns the target HLA-A*02:03. The assay is described as above.
Assay [13] concerns the target HLA-A*02:11. The assay is described as above.
The target of assay [14] is HLA-A*26:01. Described as above. Conditions: source organism: Yersinia mollaretii ATCC 43969.
Assay [15] has as its target HLA-B*27:03. The description is as above. The settings on record: source organism: Yersinia mollaretii ATCC 43969.
The target of assay [16] is HLA-B*15:01. The description is as above. Conditions: source organism: Yersinia mollaretii ATCC 43969.
Assay [17] addresses HLA-A*02:19. The assay is described as above.
Assay [18] deals with HLA-B*18:01. The assay is described as above. Conditions: source organism: Yersinia mollaretii ATCC 43969.
Assay [19] has as its target HLA-A*02:01. Described as above.
Assay [20] addresses HLA-A*02:16. Described as above.
Assay [21] has as its target HLA-A*02:06. The assay is described as above.
The target of assay [22] is HLA-A*69:01. As to the kind of experiment: IEDB peptide-MHC binding, purified MHC/direct/fluorescence; filed as Kd, often an IC50 or EC50 that approximates it; ≥ and ≤ were set here for values at or beyond the usual limits of such assays.
Assay [23] deals with HLA-A*30:01. The assay is described as above.
The target of assay [24] is HLA-A*03:01. The assay is described as above.
The target of assay [25] is HLA-A*31:01. The description is as above. Conditions: source organism: Vibrio cholerae.
In assay [26] the target is HLA-B*35:01. The assay is described as above.
The target of assay [27] is HLA-A*01:01. The assay is described as above.
Assay [28] concerns the target HLA-B*44:02. The assay is described as above.
Assay [29] addresses HLA-B*58:01. The description is as above.
Assay [30] concerns the target HLA-B*27:05. Described as above.
Assay [31] deals with HLA-B*08:01. The assay is described as above.
Assay [32] addresses HLA-A*11:01. Described as above.
Assay [33] deals with HLA-A*26:01. The assay is described as above.
In assay [34] the target is HLA-B*40:01. The description is as above.
In assay [35] the target is HLA-B*15:01. The assay is described as above.
For assay [36], the target named is HLA-B*07:02. The assay is described as above. The settings on record: source organism: Vibrio cholerae.
In assay [37] the target is HLA-A*02:01. The description is as above.
For assay [38], the target named is HLA-B*58:01. As to the kind of experiment: IEDB peptide-MHC binding, purified MHC/competitive/fluorescence; filed as Kd, often an IC50 or EC50 that approximates it; ≥ and ≤ were set here for values at or beyond the usual limits of such assays. The settings on record: source organism: Mycobacterium tuberculosis C.
The target in assay [39] is HLA-A*24:03. Kind of assay: IEDB peptide-MHC binding, purified MHC/direct/fluorescence; filed as Kd, often an IC50 or EC50 that approximates it; ≥ and ≤ were set here for values at or beyond the usual limits of such assays. The settings on record: source organism: Giardia lamblia ATCC 50803.
In assay [40] the target is HLA-C*05:01. The assay is described as above. The settings on record: source organism: Mycobacterium tuberculosis variant bovis BCG str. Pasteur 1173P2.
The target of assay [41] is HLA-C*03:03. The description is as above. Conditions: source organism: Mycobacterium tuberculosis variant bovis BCG str. Pasteur 1173P2.
Where [42] appears, read: source organism: Yersinia mollaretii ATCC 43969.
Setting [43] is: source organism: Human immunodeficiency virus 1.
Where [44] appears, read: source organism: Vibrio cholerae.
Setting [45] is: source organism: Giardia lamblia ATCC 50803.
Setting [46] is: source organism: Mycobacterium tuberculosis variant bovis BCG str. Pasteur 1173P2.

Consider DEQEFFYSQ, for which the Kd in assay [1], in [2] (setting [42]), in [3] (setting [42]), in [4], in [5] and in assay [6] was not below 20 µM throughout. Besides, the Kd in assay [7], in assay [8], in assay [9], in assay [10], in assay [11] and in assay [12] (setting [42]) was not below 20 µM each time. For the same sequence, the Kd in assay [13] (setting [42]) was not below 20 µM; in assay [14] it was not below 20 µM; in assay [15] it was not below 20 µM; in assay [16], not below 20 µM; in assay [17] (setting [42]), not below 20 µM; in assay [18] it was 0.0003 µM. In addition, the Kd in [19] (setting [42]) and in [20] (setting [42]) was not below 20 µM throughout.
As for FLGKIWSS, the Kd in assay [2] (setting [43]) is not below 5 µM; in [3] (setting [43]), 0.0005 µM; in assay [21] (setting [43]), not above 0.0001 µM; in [12] (setting [43]), 0.00138 µM; in assay [13] (setting [43]), not above 0.0001 µM; in assay [17] (setting [43]), 0.00233 µM. For the same sequence, the results for the Kd in assay [19] (setting [43]) and in [20] (setting [43]) were 0.0075 µM and not above 0.0001 µM, respectively.
For GEHWLGRIW, the Kd in [22] (setting [44]) was not below 20 µM; in assay [23] (setting [44]) it was not below 20 µM; in [24] (setting [44]) it was not below 20 µM; in assay [25], not below 20 µM; in assay [26] (setting [44]), not below 10 µM; in [27] (setting [44]), not below 20 µM. In addition, the Kd in [28] (setting [44]) was 3.83 µM; in [29] (setting [44]) it was 19.4 µM; in [30] (setting [44]) it was 13.1 µM; in assay [31] (setting [44]), not below 20 µM; in [32] (setting [44]), not below 20 µM; in [33] (setting [44]), not below 20 µM. Besides, the dissociation constant (Kd) in [34] (setting [44]) was 0.858 µM; in assay [35] (setting [44]), not below 20 µM; in [36], not below 20 µM; in [37] (setting [44]), not below 20 µM.
As for RSFRIHILF, the Kd in assay [35] (source organism: Mycobacterium tuberculosis) was not below 10 µM; in assay [38], 4.4 µM.
On to SYPPPPASF, for which the Kd was not below 20 µM in assay [22] (setting [45]); not below 44.4 µM in [23] (setting [45]); not below 20 µM in assay [24] (setting [45]); 1.59 µM in assay [26] (setting [45]); not below 20 µM in [27] (setting [45]); 0.00084 µM in assay [39]. Also, the Kd in assay [28] (setting [45]), in [29] (setting [45]), in assay [30] (setting [45]), in assay [31] (setting [45]), in assay [32] (setting [45]) and in [33] (setting [45]) was not below 20 µM in each case. Besides, the Kd in assay [34] (setting [45]) was not below 20 µM; in [35] (setting [45]), not below 10 µM; in assay [37] (setting [45]) it was not below 20 µM.
Consider YLAEGHACL, for which the Kd is 0.151 µM in assay [40]; 0.002 µM in assay [41]; 0.378 µM in assay [2] (setting [46]); 0.0026 µM in assay [3] (setting [46]); not above 0.001 µM in [21] (setting [46]); not above 0.001 µM in assay [12] (setting [46]). Also, the Kd in assay [13] (setting [46]) was not above 0.001 µM; in [17] (setting [46]), 0.0033 µM; in assay [20] (setting [46]), not above 0.001 µM.

Broadly, the Kd is a measure of binding affinity in units of concentration. A higher Kd goes with lower affinity.

The values are drawn from the Immune Epitope Database (IEDB).
